Experimental data taken from patent US7943358B2, “Polymerase enhancing factor (PEF) extracts, PEF protein complexes, isolated PEF protein, and methods for purifying and identifying” (Agilent Technologies, Inc., priority 1997, dated 2011).

Columns and labels:
Assay type in all cases: biochemical
[1] = PPi production from dUTP (dUTPase activity), Sigma Enzymatic Determination of Pyrophosphate kit
Experimental: In experiments to investigate whether PPi is formed during the reaction, 900 or 1800 ng of PEF was incubated with 10 mM dUTP in 1× cloned Pfu polymerase buffer for 1 hour at 72° C. The presence of PPi in the reaction mixture was then quantified using Sigma's Enzymatic Determination of Pyrophosphate kit (Sigma Product No. P7275). The kit utilizes a coupled enzyme system whereby two moles of NADH are oxidized to NAD^+ for each mole of PPi present in the reaction mixture. The oxidation of NADH is monitored spectrophotometrically at 340 nm. […] The reactions that contained 1800 ng of PEF produced twice as much PPi as those that contained 900 ng of PEF.
The temperature optimum (Topt) for the generation of PPi from dUTP was measured by incubating mixtures of dUTP and native PEF at temperatures ranging from 73° C. to 99° C. PPi production by native PEF increased steadily over this temperature range and was highest at 99° C. […]
The enzyme activity of three different preparations of S200-purified native PEF was measured at 85° C. Protein concentrations were determined by both Bradford and by amino acid analysis. Shown below is a summary of the enzyme activity and specific activity (protein concentration determined by Bradford or AAA as indicated) of S200-purified native PEF. […]

[2] = PCR cycling of dCTP in the presence of PEF or Pfu DNA polymerase, HPLC; conditions: 10 mM dCTP, 0.5 ng PEF/μl
[3] = molecular target: Taq DNA polymerase (Thermus aquaticus, UniProt P19821); test: PCR with Taq DNA polymerase
Taq DNA polymerase, sequence (P19821 whole entry): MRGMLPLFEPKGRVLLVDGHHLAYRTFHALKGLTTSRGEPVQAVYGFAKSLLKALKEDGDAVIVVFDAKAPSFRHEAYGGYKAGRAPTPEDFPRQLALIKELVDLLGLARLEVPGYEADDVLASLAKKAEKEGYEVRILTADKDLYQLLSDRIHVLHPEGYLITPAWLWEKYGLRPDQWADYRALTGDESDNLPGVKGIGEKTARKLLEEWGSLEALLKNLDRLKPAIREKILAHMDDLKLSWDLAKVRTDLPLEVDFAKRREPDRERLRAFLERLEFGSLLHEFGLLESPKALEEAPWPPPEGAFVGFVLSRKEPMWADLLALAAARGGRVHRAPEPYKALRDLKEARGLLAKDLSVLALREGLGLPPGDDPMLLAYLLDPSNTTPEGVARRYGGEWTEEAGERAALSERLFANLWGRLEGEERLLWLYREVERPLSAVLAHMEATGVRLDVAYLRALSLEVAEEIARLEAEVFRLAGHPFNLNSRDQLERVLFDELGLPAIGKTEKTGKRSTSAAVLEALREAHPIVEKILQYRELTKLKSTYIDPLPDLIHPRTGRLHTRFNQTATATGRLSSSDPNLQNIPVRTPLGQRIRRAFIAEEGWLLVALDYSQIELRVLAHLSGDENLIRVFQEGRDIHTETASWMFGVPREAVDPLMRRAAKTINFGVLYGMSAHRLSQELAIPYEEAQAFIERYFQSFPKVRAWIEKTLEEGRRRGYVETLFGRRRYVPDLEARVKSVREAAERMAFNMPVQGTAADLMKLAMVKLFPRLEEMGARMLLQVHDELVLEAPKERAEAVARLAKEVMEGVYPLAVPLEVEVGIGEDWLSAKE
Experimental: FIGS. 33, 34, 35, and 36. Enhancing activity of P. furiosus PEF in PCRs conducted with Pwo (FIG. 33); JDF-3 (FIGS. 34 and 35), ES4 and Vent (FIG. 35). and Deep Vent (FIG. 36) DNA polymerases. In FIG. 33, 25 μl PCRs were conducted using the 6.2 kb test system (example 1) with 25 U/ml Pwo DNA polymerase and 1× cloned Pfu PCR buffer. 1 μl of S200-purified P. furiosus PEF (prep 1; 225 ng/μl) was added undiluted (lane 1) or diluted 1:10 (lane 2), 1:1000 (lane 3), 1:10,000 (lane 4). 1 μl of dilution buffer was added as a negative control (lane 5). In FIG. 34, a 10 kb lambda DNA-target was amplified from lambda DNA (lanes 1-4; 5-7; 11-13) or mouse genomic DNA, containing 40 copies (lanes 8-10) or 1 copy (lanes 14-16) of a lambda DNA transgene. 100 μl PCRs were conducted with 250 ng of lambda DNA (Sigma) or mouse genomic DNA and 250 ng of primers (F51-20 5′[…] (SEQ ID NO: 22); R10163-20 5′CCA-TCT-CAC-GCG-CCA-GTT-TC) (SEQ ID NO: 23). PCRs were conducted in Taq PCR buffer using 5 U Taq DNA polymerase (lanes 1-4) or 1 U JDF3 DNA polymerase (lanes 5-16). 1 μl of the following was added to PCRs: S200-purified PEF (prep. 3; 550 ng/μl PEF) diluted 1:500 (lanes 2, 12, 15), 1:100 (lanes 6, 9), 1:50 (lane 3), 1:10 (lanes 7, 10, 13, 16), or 1:5 (lane 4). 1 μl of dilution buffer was added as a negative control (lanes 1, 5, 8, 11, 14). […]

B1: PEF: polymerase enhancing factor complex purified from Pyrococcus furiosus; predominant components P50 and P45 (protein)
chain 1: MLHHVKLIYATKSRKLVGKKIVXXXPGSIAALDVKACEGLIRHGAEVHAVMSEAATKIIHPYAWNLPTGNPVITEITGFIEHVELAGEHENKADLILVCPATANTISKIACGIDDTPVTTVVTTAFPHIPIMIAPAMHETMYRHPIVRENIERLKKLGVEFIGPRIEEGRAKVASIDEIVYRVIKKLHKKTLEGKRVLVTAGATREYIDPIRFITNASSGKMGVALAEEADFRGAVTLIRTKGSVKAFRIRKIKLKVETVEEMLSAIENELRSKKYDVVIMAAAVSDFRPKIKAEGKIKSGRSITIELVPXNPKIIDRIKEIQPNVFLVGFKAETSKEKLIEEGKRQIERAKADLVVGNTLEAFGSEENQVVLIGRDFTKELPKMKKRELAERIWDEIEKXLS
chain 2: MLLPDWKIRKEILIEPFSEESLQPAGYDLRVGREAFVKGKLIDVEKEGKVVIPPREYALILTLERIKLPDDVMGDMKIRSSLAREGVIGSFAWVDPGWDGNLTLMLYNASNEPVELRYGERFVQIAFIRLEGPARNPYRGNYQGSTRLAFSKRKKL
modifications: not fully specified; X: residue not identified in the source
notes: polymerase enhancing factor complex purified from Pyrococcus furiosus; predominant components P50 and P45
- PPi production from dUTP (in words) [1]: clearly established
- temperature optimum (Topt) for the generation of PPi from dUTP ([1]; tested from 73° C. to 99° C.): > 99 °C
- dCDP after PCR cycling in presence of PEF [2]: 19%
- dCMP after PCR cycling in presence of PEF [2]: 8%
- dCTP after PCR cycling in presence of PEF [2]: 73%
- dUTP after PCR cycling in presence of PEF [2]: no detectable dUTP
- yield of PCR products generated with Taq DNA polymerase [3]: may not enhance the yield
